The test can be described thus: Temperature- and urea-dependent fluorescence landscapes of fluorescent conjugates (Roche LightCycler). On the set-up: key: y, yes; n, no. Type of test: binding. The note with it: fluorescent response to urea. On the procedure: We constructed 20 single cysteine mutants in csUBP7, exploring 7 endosteric, 12 peristeric, and 1 allosteric position (FIG. 9). At each position we attached the Prodan-derived fluorophores Acrylodan and Badan, which differ by one methylene group in their thiol-reactive linker. The fluorescent responses of these conjugates was determined initially as a function of urea concentration and temperature (FIG. 10). […] The ligand dependence of the emission spectra shapes was determined for these conjugates (Table 8).
Determination of temperature- and ligand-dependent fluorescence landscapes. […] Urea concentrations were varied from 0-4.8 M in 20 mM KCl, 20 mM MOPS (pH 7.4). […] Temperatures were advanced in 1K steps.
Ratiometric analysis of urea binding. […] 2
For a single urea-binding site, the fractional saturation is given by
[formula] where [L] is the ligand (urea) concentration and Kd the dissociation constant, ^trueKd for ytrue.
To obtain the temperature dependence of the binding reaction, the Kd values of all the individually determined isotherms were fit the Gibbs-Hemholtz equation (Layton and Hellinga, 2010, Biochemistry, 49, 10831-41):
[formula] where ΔGb^•(T) is the standard free energy of binding at 1 M ligand at temperature T,
[formula] Δ^refHb^• and Δ^refSb^• the molar enthalpy and entropy of binding, respectively, at the reference temperature, Tref, and ΔCp,b the heat capacity of the binding reaction.

Where a chain is given by its changes, count along the chain named. In names and notes the source's numbering stands.

B1: bsUBP3 T77C: bsUBP3 77C cysteine mutant (SEQ ID NO: 44), tested as Acrylodan conjugate (conjugate)
chain: MKVGILHSLSGTMAISEVSVHDAELIAIQEINQKGGVLGKKLEPVVEDGASDWPTYAEKMRKLLQQDKVAAVFGGWCSASRKAMLPVVEQNNGLLFYPVQYEGMETSPNIFYTGATTNQQIVPAVDWLLKNKGKKFFLIGSDYVFPRTANKIIKAQVKAGGGEIAGEEYTPLGHTNYSTLVSKIKEKQPDVIFNTLNGDSNVAFFKQLKDAGISADDMPVMSASVAEEEIRGIGPDVLKGHYAVWNYFQTTNTSENQTFVKNYKKMNGDSRVTSDPIEAGYNAVYLWAAAVEKAKSFDVDKVKKAADGISFKAPGGTVKIDGDTQHLYKTVRIGQITGDGQFKEVWNSGEPVKPDPYLKTYDWAKGLSKGGSHHHHHH
modifications: Acrylodan conjugate; bsUBP3_77C (77C substitution mutant with signal peptide replaced with M and a GGSHHHHHH at C-terminus)
On to B1, for which the Response entry (Acrylodan conjugate) is on record as “y”.

B2: bsUBP3 L172C: bsUBP3 172C cysteine mutant (SEQ ID NO: 48), tested as Acrylodan conjugate (conjugate)
chain: B1 chain with C77T, L172C
modifications: Acrylodan conjugate; bsUBP3_172C (172C substitution mutant with signal peptide replaced with M and a GGSHHHHHH at C-terminus)
In the case of B2, the Response result (Acrylodan conjugate) is “y”.

B3: bsUBP3 A79C: bsUBP3 79C cysteine mutant (SEQ ID NO: 46), tested as Acrylodan conjugate (conjugate)
chain: B1 chain with C77T, A79C
modifications: Acrylodan conjugate; bsUBP3_79C (79C substitution mutant with signal peptide replaced with M and a GGSHHHHHH at C-terminus)
Turning to B3, the Response result (Acrylodan conjugate) is reported as “y”.

B4: csUBP7 S65C: csUBP7 65C cysteine mutant (SEQ ID NO: 26), tested as Acrylodan and Badan conjugates (conjugate)
chain: MSSSESEKEKSEETIKVGILHSLSGTMSISEVSLKDAELMAIEEINNNGGVLGKKLEPIVEDGACDWPTFAEKAKKLLQKDKVAVIFGAWTSASRKAVLPVVEENNGLLFYPVQYEGLESSPNIFYMGAAPNQQIVPAVKWLFDNGKKRFYLLGSDYVFPRTANKIIKAYLKYLGGVVVGEEYTPLGHTDYSSVINKIKAAKPDVVFNTLNGDSNVAFFKQLKDAGIDANTLPVMSVSIAEEEIKGIGPEYLKGHLVTWNYFQSVDTPENKEFVEKYKKKYGEDRVTDDPIEAAYIGVYLWAKAVEKAGSTDVDKVREAAKGIEFNAPEGPVKIDGDNQHLYKTVRIGEILENGQIRELWKTNKPVKPDPYLKGYEWAQGLSEQGGSHHHHHH
modifications: Acrylodan or Badan conjugate; csUBP7_65C (65C substitution mutant with signal peptide replaced with M and a GGSHHHHHH at C-terminus, and also comprising a C89A substitution)
For B4, the Response entry runs as follows: (Acrylodan conjugate) “n”; (Badan conjugate) “y”.

B5: csUBP7 Q114C: csUBP7 114C cysteine mutant (SEQ ID NO: 34), tested as Acrylodan and Badan conjugates (conjugate)
chain: B4 chain with C65S, Q114C
modifications: Acrylodan or Badan conjugate; csUBP7_114C (114C substitution mutant with signal peptide replaced with M and a GGSHHHHHH at C-terminus, and also comprising a C89A substitution)
Turning to B5, the Response result is, setting by setting: (Acrylodan conjugate) “n”; (Badan conjugate) “n”.

B6: csUBP7 F159C: csUBP7 159C cysteine mutant (SEQ ID NO: 39), tested as Acrylodan and Badan conjugates (conjugate)
chain: B4 chain with C65S, F159C
modifications: Acrylodan or Badan conjugate; csUBP7_159C (159C substitution mutant with signal peptide replaced with M and a GGSHHHHHH at C-terminus, and also comprising a C89A substitution)
B6: the Response result is, setting by setting: (Acrylodan conjugate) “n”; (Badan conjugate) “n”.

B7: csUBP7 V158C: csUBP7 158C cysteine mutant (SEQ ID NO: 38), tested as Acrylodan and Badan conjugates (conjugate)
chain: B4 chain with C65S, V158C
modifications: Acrylodan or Badan conjugate; csUBP7_158C (158C substitution mutant with signal peptide replaced with M and a GGSHHHHHH at C-terminus, and also comprising a C89A substitution)
As for B7, the Response result (Acrylodan conjugate) was “n” and the Response result (Badan conjugate) is reported as “n”.

B8: csUBP7 S92C: csUBP7 92C cysteine mutant (SEQ ID NO: 30), tested as Acrylodan and Badan conjugates (conjugate)
chain: B4 chain with C65S, S92C
modifications: Acrylodan or Badan conjugate; csUBP7_92C (92C substitution mutant with signal peptide replaced with M and a GGSHHHHHH at C-terminus, and also comprising a C89A substitution)
Turning to B8, the Response result is “n” (Acrylodan conjugate) and “n” (Badan conjugate).

B9: csUBP7 Y115C: csUBP7 115C cysteine mutant (SEQ ID NO: 35), tested as Acrylodan and Badan conjugates (conjugate)
chain: B4 chain with C65S, Y115C
modifications: Acrylodan or Badan conjugate; csUBP7_115C (115C substitution mutant with signal peptide replaced with M and a GGSHHHHHH at C-terminus, and also comprising a C89A substitution)
Take B9: the Response result reads like this: (Acrylodan conjugate) “n”; (Badan conjugate) “n”.

B10: csUBP7 A93C: csUBP7 93C cysteine mutant (SEQ ID NO: 31), tested as Acrylodan and Badan conjugates (conjugate)
chain: B4 chain with C65S, A93C
modifications: Acrylodan or Badan conjugate; csUBP7_93C (93C substitution mutant with signal peptide replaced with M and a GGSHHHHHH at C-terminus, and also comprising a C89A substitution)
For the molecule B10, the Response entry is reported as “y” (Acrylodan conjugate) and “n” (Badan conjugate).

B11: csUBP7 Y111C: csUBP7 111C cysteine mutant (SEQ ID NO: 33), tested as Acrylodan and Badan conjugates (conjugate)
chain: B4 chain with C65S, Y111C
modifications: Acrylodan or Badan conjugate; csUBP7_111C (111C substitution mutant with signal peptide replaced with M and a GGSHHHHHH at C-terminus, and also comprising a C89A substitution)
As to B11, the Response result runs as follows: (Acrylodan conjugate) “n”; (Badan conjugate) “n”.

B12: csUBP7 S238C: csUBP7 238C cysteine mutant (SEQ ID NO: 42), tested as Acrylodan and Badan conjugates (conjugate)
chain: B4 chain with C65S, S238C
modifications: Acrylodan or Badan conjugate; csUBP7_238C (238C substitution mutant with signal peptide replaced with M and a GGSHHHHHH at C-terminus, and also comprising a C89A substitution)
On to B12, for which the Response entry runs as follows: (Acrylodan conjugate) “n”; (Badan conjugate) “n”.

(Values after patent US11906524B2, “Urea biosensors and uses thereof” (Duke University, priority 2015, dated 2024).)
